# T1: recombinant ɸ6 protein P1 (cystovirus ɸ6, UniProt P11126 1-769)
# T1 sequence (looked up): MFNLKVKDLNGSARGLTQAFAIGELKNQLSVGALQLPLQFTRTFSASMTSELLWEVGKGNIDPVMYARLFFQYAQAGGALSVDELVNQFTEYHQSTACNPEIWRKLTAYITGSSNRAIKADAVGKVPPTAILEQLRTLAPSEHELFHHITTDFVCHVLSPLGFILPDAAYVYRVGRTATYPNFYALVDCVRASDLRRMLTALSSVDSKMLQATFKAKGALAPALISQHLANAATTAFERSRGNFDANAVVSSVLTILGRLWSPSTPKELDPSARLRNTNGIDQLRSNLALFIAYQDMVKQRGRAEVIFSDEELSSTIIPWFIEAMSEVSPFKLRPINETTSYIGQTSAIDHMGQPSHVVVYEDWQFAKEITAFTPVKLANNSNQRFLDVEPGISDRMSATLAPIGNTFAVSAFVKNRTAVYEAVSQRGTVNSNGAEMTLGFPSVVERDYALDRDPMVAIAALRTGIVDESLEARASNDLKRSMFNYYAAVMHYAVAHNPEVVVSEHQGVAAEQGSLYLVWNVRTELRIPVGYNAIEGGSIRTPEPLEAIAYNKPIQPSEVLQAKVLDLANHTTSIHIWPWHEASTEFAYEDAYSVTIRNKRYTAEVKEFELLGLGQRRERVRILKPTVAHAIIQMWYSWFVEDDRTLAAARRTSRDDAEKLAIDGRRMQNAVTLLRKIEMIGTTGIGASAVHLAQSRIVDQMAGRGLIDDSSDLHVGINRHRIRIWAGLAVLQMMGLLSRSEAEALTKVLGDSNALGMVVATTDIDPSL
# B1: outer layer protein P8 of cystovirus ɸ6 (in virion-derived particles) (natural protein)
# chain: MLLPVVARAAVPAIESAIAATPGLVSRIAAAIGSKVSPSAILAAVKSNPVVAGLTLAQIGSTGYDAYQQLLENHPEVAEMLKDLSFKADEIQPDFIGNLGQYREELELVEDAARFVGGMSNLIRLRQALELDIKYYGLKMQLNDMGYRS
# B2: packaging NTPase P4 of cystovirus ɸ6 (in virion-derived particles) (enzyme, UniProt P11125 2-332, looked up)
# chain: PIVVTQAHIDRVGIAADLLDASPVSLQVLGRPTAINTVVIKTYIAAVMELASKQGGSLAGVDIRPSVLLKDTAIFTKPKAKSADVESDVDVLDTGIYSVPGLARKPVTHRWPSEGIYSGVTALMGATGSGKSITLNEKLRPDVLIRWGEVAEAYDELDTAVHISTLDEMLIVCIGLGALGFNVAVDSVRPLLFRLKGAASAGGIVAVFYSLLTDISNLFTQYDCSVVMVVNPMVDAEKIEYVFGQVMASTVGAILCADGNVSRTMFRTNKGRIFNGAAPLAADTHMPSMDRPTSMKALDHTSIASVAPLERGSVDTDDRNSAPRRGANFSL
# B3: major capsid protein P1 of cystovirus ɸ6 (in virion-derived particles) (natural protein)
# chain: T1 sequence (looked up)
# B4: recombinant ɸ6 protein P2 (enzyme, cystovirus ɸ6)
# chain: PRRAPAFPLSDIKAQMLFANNIKAQQASKRSFKEGAIETYEGLLSVDPRFLSFKNELSRYLTDHFPANVDEYGRVYGNGVRTNFFGMRHMNGFPMIPATWPLASNLKKRADADLADGPVSERDNLLFRAAVRLMFSDLEPVPLKIRKGSSTCIPYFSNDMGTKIEIAERALEKAEEAGNLMLQGKFDDAYQLHQMGGAYYVVYRAQSTDAITLDPKTGKFVSKDRMVADFEYAVTGGEQGSLFAASKDASRLKEQYGIDVPDGFFCERRRTAMGGPFALNAPIMAVAQPVRNKIYSKYAYTFHHTTRLNKEEKVKEWSLCVATDVSDHDTFWPGWLRDLICDELLNMGYAPWWVKLFETSLKLPVYVGAPAPEQGHTLLGDPSNPDLEVGLSSGQGATDLMGTLLMSITYLVMQLDHTAPHLNSRIKDMPSACRFLDSYWQGHEEIRQISKSDDAILGWTKGRALVGGHRLFEMLKEGKVNPSPYMKISYEHGGAFLGDILLYDSRREPGSAIFVGNINSMLNNQFSPEYGVQSGVRDRSKRKRPFPGLAWASMKDTYGACPIYSDVLEAIERCWWNAFGESYRAYREDMLKRDTLELSRYVASMARQAGLAELTPIDLEVLADPNKLQYKWTEADVSANIHEVLMHGVSVEKTERFLRSVMPR
# modifications: RED fluorescent dye NT-647-NHS (Monolith Protein Labeling Kit RED-NHS), in the MST only
# How the values were obtained:
# [1] = target: recombinant ɸ6 protein P2 (cystovirus ɸ6) (UniProt P11124); assay: MST
# [2] = target: RNA-dependent RNA polymerase P2 of cystovirus ɸ6 (in virion-derived particles) (cystovirus ɸ6) (UniProt P11124); assay: cryo-EM structure
# [3] = target: minor protein P7 of cystovirus ɸ6 (in virion-derived particles) (cystovirus ɸ6); assay: cryo-EM structure
# [4] = target: recombinant ɸ6 protein P7, full length (cystovirus ɸ6); assay: asymmetric flow field flow fractionation
# [5] = target: recombinant ɸ6 protein P2 (cystovirus ɸ6) (UniProt P11124); assay: asymmetric flow field flow fractionation
# [6] = target: the molecule itself; assay: cryo-EM structure
# [7] = target: T1, recombinant ɸ6 protein P1; assay: co-sedimentation
molecule,measurement,setting,value
C-terminally truncated P7 comprising residues 2–115 (domain or fragment),Kd,[1],15.1 µM
minor protein P7 of cystovirus ɸ6 (in virion-derived particles) (natural protein),stoichiometry N (P7 dimers per P2),[2],4
same,stoichiometry N,[3],4
"recombinant ɸ6 protein P7, full length (natural protein)",stoichiometry N,[4],2
same,stoichiometry N (P7 dimer per P2 monomer),[5],1
same,Kd,[1],1.3 µM
B1,stoichiometry N,[6],3
B2,stoichiometry N,[6],6
B3,stoichiometry N,[6],2
B4,binding result,[7],binds
